Here are results for 21 sequences from a protein production outcome set (Wang et al. 2014).

A short description of the data set: label from the status in PepcDB records.
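Also: failed if final PepcDB status was selected cloned or expressed and not failed if soluble or beyond.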

“MIDDKYFDVFNDKSTLQAIAVPERLERRTTVTDRIDRNGTRHEAVVPVGAAYTLLPKQFCKPAAKNYLFELDDFQKISVCSLERDESVLVSAHTSSGKTVVAEYAIAMSLRSNQRVVYTSPIKALSNQKYRELLSEFSDVGLMTGDVTINPTASCLVMTTEILRNMLYRGGEVVREIHWIIFDEIHYMRDKERGVVWEETIILLPKHVRMVFLSATIPNALEFAEWISHIQSQVVHVVYTEKRVTPLVHYFRSNKLYKIKDAKFHKSNFLSAMRSIRKRNVGPREVGEAIGDASLPVVVFSFKRKDCERFAMKLDGRYLTDEEARTVQTIFTNAIMSLRKEDREIPIIQNILPLLMRGIGIHHSGLLPIIKEVVEILFQEGLLKVLFATETFSIGLNMPAKSVVFTALKKFDGEAMRLVSSGEYIQMSGRAGRRGIDSMGIVISIISEPITYKEASRLFSASSDNLVSAFRLTYNMLLNLMRVEGLDPLYLISRSFHHFQSYKKALAEEETLHLMYRRLEDIEPNETACLYRKREEKKVERGKRLVEAFGKYLKKGRVVDLFIPRNGPSITIRNAIVSKAREKVQCMVGTEEGVYMCSFPLHYIDCVYDIRVKLDVRVFTKSFEKIAVRDELDEEIEEIEGKILSMDPEWSFDFCVLCGKSSVGCLVSCSRELIDSEAVIVQMPENTKRYGESLEAARYPSTEMKSNMDGARAFFVNETLRQRYLEKLLELNSLKEIYHMRECKKMIEVLKKLEYCDDTTVLIKGRMACEISSGDELVLTEMIFNGDFAGIPVEHFVPLLSCIVFEEWDSDSFVLSDENKLYYRLLSDSVEKVCKVLKSCGIEIDPAAYLKRFSYELMDVVRMWVCGCTFISICSKTSIFEGSIIRTFKRLEELLRQLSSAARVIGNTELENMFALGIVKIKRDIVFANSLYI”: the protein production entry is given as “failed”.

Regarding “MIDLDPRLAADTHPVTQWPLSQVRLMDDVRFPWLVLIPDRPGLVEIFDLPAEDQDKMWREVAHAAATLKTLSGAHKINIGALGNQVSQLHIHIIARRPDDGAWPGPVWGVGERQRYDQAELAEFLSGLRAQLIAPGQGIVEEGQTR”, the protein production entry is reported as “failed”.

Consider “MIDMFPMEKGEEQETYELIVRVFHKYVAPVYSENGVARFLGMLSPEGLSEMNNGKNSFVIVARDQSKIIGMISVINDSHIALFFVSPRYQGKGIGKNILDEAIKNCLNRNPELSAVTVSSSPNSKSFYEEAGFEVIGNEINEEGLRFTPMRKLLRQLEHHHHHH”, for which the protein production result is “failed”.

On to “MIDRRRVRHSFHRQALEYDAHAAVQKRVVERFLQILDDEVGSPLRILDVGAGTGLLARQLADCHPAALLSCVDLAPGMAATARQRLGSRALVAVADAEHLPFAGASFDCVVSTSTFQWLTTLDAAFGEVWRVLAPGGLFAFALFGHGTFHELKDSYRSALTAVGREDEDRTQRFFTEAEAGAALERTGFGVRRLCVEDEVEWHPDVPAFLRSVKRVGAGNASPLRGRGLAERRVMVEMMRVYGERYGGERGIPATYTVIYGVGVKSGRK”, for which the protein production entry is reported as “failed”.

For “MIDTIIISLIAFSILVSLWRGFISEVLSLSGWIAAFFVASTFYPYLSSYLNEIDSVYLQNSEYLRNGIAAAILFIITLILCGIVNALLSKIINTTGLSATDRVLGIAFGALRGILIVAAILFFIDTFTTSNQTELWQESQLIPHFDFIVKWFFEQLQANSSFLNSTTTTK”, the protein production entry is reported as “failed”.

Take “MIDTLKNIKVKDVMTKNVITAKRHEGVVEAFEKMLKYKISSLPVIDDENKVIGIVTTTDIGYNLIRDKYTLETTIGDVMTKDVITIHEDASILEAIKKMDISGKKEEIINQLPVVDKNNKLVGIISDGDIIRTISKII”: the protein production result was “not failed”.

Turning to “MIEEAPPHPSAPMAASPSVTTALKHAPLGIAIFDNQMRYLAASRQYLTDQHLPPDLPLIGRLHYDAFPEVPQKWRDLHARVLAEGVELRHEGDPYVDREGRTQWIRWSMAPWRTDGGGIGGLVLYTEVVT”, the protein production entry is “failed”.

Consider “MIEFLLNYYFMPFNLSVIALLILSMAETIGIYIGLRPSTFLKKFLPRWLSNSPLVNVKFSKVLILVFFLINFSFAGYFLQLCVFAQQQFFISPFYLIIPALIIGIFFTVFMIHCLDQVIKPQVEHQYSSLLGRLATISSGSARPGFSAQARVRDEFGQLHYVQVEPEFGELELQSQVILIRFRQTHYIAKRISASNHLFTPE”, for which the protein production entry is “failed”.

With “MIEIKTLTNNDFNEYKRLVSTVNEEFTQDSHYSQTMTDTLIHDILNQGSPKCIVFGCYENETLIATAALEQIRYVGKEHKSLIKYNFVTNNDKSINSELINFIINYARQNNYESLLTSIVSNNIGAKVFYSALGFDILGFEKNAIKIGNTYFDEHWLFYDLINK”, the protein production result is “failed”.

As for “MIEKIVKEMTLKEKVGQLNQHLYGWQCYQKVNGKYELTDLFKEHVKEYGGVGAIYGILRADAWSQINRENGISREDSKIVITMIQEYIKKHSRFEIPALISEECVHGHMALGAPVFPTNLAMGMTWNPDLMERITHNVSQELAAKGGNLALFTGFDVLRDPRWGRSEECFSEDAYLTSCMTSAAVHGFQKEKNGVAVVVKHLCAQGGCVGGHNSDAALIGPRELREIHLPPVKAAIDAGAKAVMAAYNEIDGIPCHINKALLFETLRKEYDFSGIVMADGCALDRLLLLDDDILKVGSLALKAGVDLSLWDNVYLRLDEAIKQGYLTEEELDQAVLRVLRLKEELGLWEELNTYSLPEASDLLLQAARECQVLLKNNDSLLPLSSKQKIAVIGPNANHYLNQLGDYTAYQNKSDIVTVYDGICQKTEISPIYVQGCSIRGRKFDIEPALVAAKAADIVILVLGGNSTRLYQDTFENNGAVKANQENQMNCGENIDLASLELEGYQNELLLALKEVNPHIVTVLIQGRPHVINTVLKHSQAVLASFYPGSRGGEGIADVLFGDYNPSGHLSVSIPQHVGQLPCYYNHKHNGAQKDYVDMPGEALLPFGYGLSYSQFIYRDIKVPKAIKITDLLENGIDLQLEIYNNSTYDGEDVIQVYLKDHQASVVSRVIELKAFNKVKIQAYQSKQISIHLTSDAFAIWNYEMKYLVEPGDVSICIGVDSKHYQEFKLTLVK”, the protein production result is listed as “failed”.

For “MIELIIGAVLLSLLIYGIFIEPHLMKVRHVKIAQKQNLKIAHFTDTHFAWHTTSRRFKKFARNIANEQPDLIIFSGDLFDKVAWAKNRDWTDLLTILSELKAPLGKFAILGNHDFDDEKSSRFVEEFLEKAGFVLLKNSSVVKDNLSISGVDDWREGRPDFELEPIDATFSLLALHEPDTILDMETIKEFDLILSGHSHGGQIRIGNWRLRNKGSSSADAGLYQLNDRTKLYVNRGIGLTFLPIRFGVPPEIVYYYI”, the protein production entry is reported as “failed”.

Regarding “MIENSSPYTSEHFHYTVTDIKDLTKLGAIYDKTKKYWVYQGKPVMPDQFTFELLDFLHQLTHLSFSKMKALLERSHSPYYMLNRDRTLKNITETCKACAQVNASKSLEHHHHHH”, the protein production entry is on record as “not failed”.

Turning to “MIEQELTYQDLRIPSSEIYEAMGYKDSIPDQMVIDETNTLLKRVIPLLRPRFAFFFMEGTLDIEKETLSVQSIHPPTVNPIQDTIPTRSPEQNTFSTQSKSTVFSVGKTIARQLRGSEAFVFFAATAGTEFEVFQHTLQQEEDMVKIYIADSLGSIIAEKTADCMEVALAEYIREKNWKHTNRYSPGYCGWHVSEQQKLFPLFPIAAPCGIRLTDSSLMVPIKSVSGVIGTGTNVRKLEYTCGLCTYENCYRKRKHRLEHHHHHH”, the protein production result is reported as “failed”.

In the case of “MIERLELRNLTVFTGLTLELSPKINVIIGENGTGKTHLLKAAYGLCAGAPLFKNKPDTGDDELEAALTAKLLRLFMPLDDKLGKMHRQGATDQAYLSAKFAGGQKIAATFFNNSKALAVQDRANYEKYQAEAVFIPTKEVLSFMKGFNSLYEKYGLSFDQTYQDICLLLDLPEVRPETLHEKSKWAMAEIEGICGGRFVFYGGGKVTFKTENAEYSANSMAEGFRKAGILSRLLETGAIQPGVSGPLFWDEPESNLNPKLMKLLVQILLELSRNGQQIILATHDYVLLKWFDLLMDKGKDDHVRFHSLYRDADTSEIKVASTEDYLKITPNPIDEAFGFLINQEIENDMGGLGK”, the protein production entry is recorded as “failed”.

In the case of “MIEYRIFRFPMYPLLARFFSSHQQALGVLFALLSAIGFSAKAIFIKLAYVEPVDAVTLLALRMVFSVPFFVFAMLHGRAQATPMARHDWLAVLLLGLVGYYLASFLDFLGLQYISAGLERMILFLYPTMVVLISALVFRAAIGRRVWFALLLSYVGIGLVFVHDFHITSDGLFMGSSLVFASALAYAIYLIGAGHTIARIGSMRFTAYAMTVACLACIAQFLLTHPLDDLQQSTRVYGLSIGMALFSTVMPAFALAAAMRRIGSMQTSMIGALGPVATIYLAYVFLAEQLSLTQLAGSGLVLIGVMMISMRKME”, the protein production result is on record as “failed”.

For the sequence “MIFMGNKVKYNLKNVHAAKLTETDSDGTTTFSYAEPKAIPGAVSISLDAEGETSPFYADGIVYFRSVTNNGYSGDLEIALIPEWFRTEILQEKLDAKGVLVENSGVGESVKFALLFEFDGDVNAIRHVLYNCSASRPSIESETKEDTIEPGTETLSITADPRSDGLVKARTGDTTDSGTYTNWYKAVYTPTEEEPEETSGEDESV”, the protein production result is “failed”.

On to “MIFYKSKRLAFFLTSDIVLILLSVYLAFSLRFSGDIPSIFYHGMMVSAIILLVLKLSFLFVFRIYKVAWRFFSLNEARKIFIALLLAEFCFFLIFYFFSDFFNPFPRSAIVIDFVLSYMFIGTLRISKRMLVDFKPSRMKEEETPCIVVGATSKALHLLKGAKEGSLGLFPVGVVDARKELIGTYCDKFIVEEKEKIKSYVEQGVKTAIIALRLEQEELKKLFEELVAYGICDVKIFSFTRNEARDISIEDLLARKPKDLDDSAVAAFLKDKVVLVSGAGGTIGSELCKQCIKFGAKHLIMVDHSEYNLYKINDDLNLYKEKITPILLSILDKQSLDEVLKTYKPELILHAAAYKHVPLCEQNPHSAVINNILGTKILCDSAKENKVAKFVMISTDKAVRPTNIMGCTKRVCELYTLSMSDENFEVACVRFGNVLGSSGSVIPKFKAQIANNEPLTLTHPDIVRYFMLVAEAVQLVLQAGAIAKGGELFVLDMGKPVKIIDLAKKMLLLSNRNDLEIKITGLRKGEKLYEELLIDENDAKTQYESIFVAKNEKVDLDWLNKEIENLQICEDISEALLKIVPEFKHNKEGV”, for which the protein production result is recorded as “failed”.

For “MIGALRHACPGSRAAAFVLSGLQTMTNEVKSAVRVIQILEYFDTVRREAGVLEISRALGFPASSTAGILRSLQRLSYLVQDEQRLYRPTPRVTLLGSWIDPLLAHDGPLMALMSHLSKATGETIILALQVDAGARYIHIIPSTQRVRLHVNVGDVRPLLTSGTGRLFVSTMEPDQVRRAVFRHNALRGANEPEINLSTVTRDATQIRKNGYATSLDRLVPGVGIIAALLPEREGTRPMAVAVGGPSVTIRARTAELASLLREGIGQYLPHLGNAGDQS”, the protein production entry is “failed”.

As for “MIGELVKDKILIKNIEDARLIYKMGYYGKPIGISKPKSAEEINSELILSLIEGVYLVKKGKLEIVSNGERLDFERLYQIGVTQIPRFRILYSVYEDLREKGYVVRSGIKYGADFAVYTIGPGIEHAPYLVIALDENSQISSNEILGFGRVSHSTRKELILGIVNLTNGKIRYIMFKWLKM”, the protein production entry is listed as “not failed”.

For the sequence “MIGHRISRLGSTIVKQLAREGYLATYGTKNLHRSYGHYLQSLPVVPRQARTSQEAWFLKSHKFCTSSTTSSENGDEETEKITIIFVDKDGEEIPVKVPIGMSVLEAAHENDIDLEGACEASLACSTCHVIVMDTEYYNKLEEPTDEENDMLDLAFGLTETSRLGCQVIARPELDGVRLAIPSATRNFAVDGFVPKPH”, the protein production result is reported as “failed”.

Consider “MIGLSFVSLLTIVCAALGCAVLTWALMPLLIRYALARPNARSSHKVPTPQGAGIAVVAATLAVTALAVGPTTPAFLGLIPLFVAAIVIGIVGAVDDIRPIPVLPRFALQALCVGAVVLTLPSDQQIIPALPLWLERAALLIGGLWFINLVNFMDGLDWMTVAEGLPVTAALLVFGLLGALTQSPMLLAAALGGALLGFAPFNRPGAARVFLGDVGSLPIGLLLGWCLLQLALQGHVAATLLLPLYYLADSTLTLLRRMMRREPFWLAHRSHFYQRATDNGFSVREVVGLVCLTNLALAALAGVSIALNSVAADGLLLAVGAAIVAALLMRFADRKA”, for which the protein production result is given as “failed”.
